In the DeepSol protein solubility set:

Assay: soluble on expression in E. coli; label from the status in PepcDB or PDB records
With “IPMRLLSDCPQFSRKTVKLLTNGGDMLELCYELRLPFVHWISVNQKSSFKRYEISHVYRRAIGHSPPNPCLQADFDIVGGTLSLTEAEVLKVIVDITTHIFHRGSCDIHLNHGDLLDAIWSWAGIKAEHRRKVAELLSMMGSLRPQSSERKLKWVFIRRQLLQELKLPEAVVNRLQTVASRFCGDADQALPRLRGALRADRPTRKALDELSNLLTYLRVWRIEEHVHIDVLMPPTESYHRNLFFQVFLTKENSSGTSNDGVLLAVGGRYDWLVQEVCDREHKMNLPGAVGVSLALETIFQHLPMDLRPIRNEVSTSVLVCSRGGGGLLVQRMELVAELWEKSIKAEFVPTPDPSLTEQYEYANEHEIKCLVIITESGVAQNQIEFVKVRHLELKKEKVVGR” the “soluble on expression in E. coli” value was “soluble”.
In the case of “MQQVPDKIYVSRSRLKSNRRRLINETDVERLFSRNGFQIIHPQELTIKEQINLFRHAQVIAGPLGSAMYNCVFQTKPTKKLLLTYEKFIKMSDLLINTSTNGLLYYFAGTEHKQNKSPSNTEWSINLNQLEHHHHHH”, the “soluble on expression in E. coli” value is reported as “not soluble”.
For “MDGMGTLTRYLEEAMARARYELIADEEPYYGEIPDLPGVWATGKSLKECEANLQAALEDWLLFLLSRGETPPPLGEVRIELPHGEAA”, the “soluble on expression in E. coli” value was “soluble”.
For “MRNIMEQYTEKPEILMLTQQSLQSENFKEMLSKNTETKITIIDAKNPSYHELIPDRYFLLVDFSVDTPSDTLVYLKDSNKVLGTIMLNLGYDLDTEELASWPHVKGIFGPLDSMEKVCRGLGAIVKGDNWLSRRLLDQLVNYYKGKESNNVSEP”, the “soluble on expression in E. coli” value was “not soluble”.
In the case of “MSSYRGGSRGGGSNYMSNLPFGLGYGDVGKNHITEFPSIPLPINGPITNKERSLAVKYINFGKTVKDGPFYTGSMSLIIDQQENSKSGKRKPNIILDEDDTNDGIERYSDKYLKKRKIGISIDDHPYNLNLFPNELYNVMGINKKKLLAISKFNNADDVFTGTGLQDENIGLSMLAKLKELAEDVDDASTGDGAAKGSKTGEGEDDDLADDDFEEDEDEEDDDDYNAEKYFNNGDDDDYGDEEDPNEEAAF”, the “soluble on expression in E. coli” value is reported as “not soluble”.
For “DQALSGQLRIGASDTIGNQVAPYLLSEFRQQTNHRSQSLFISNSAQICDMLTDYELDIALIEGKTLHPELQSTQFSEDEMCVICAPDYPAAHEGPVNLTELENSEWILREAGSGSREFFMRVVAPRLEHWHEAFQLNTTEAL”, the “soluble on expression in E. coli” value was “not soluble”.
In the case of “MSLGEDSEGSGTSGISPGGNSVSEEVLKHRSMVEKYAKESDILDYVPILLAIIQVESGGTMEDVMQSSESAGLPPNSLSTEASIKQGCIYFASLVKSSKELGCDQDSIIQAYNYGGGYLNYVAKNGKKHSFTLAESFSKEKSGGQKVDYPNPIAIKENGGWRYNYGNMFYCLLVKQYLTTTQFDDKTVQGIFDEAFKYEGTAYVFGGSSPATGFDCSGLTQWCYAKVGLKLPRVAQDQYDVMTHIDLKDAKPGDLIFFHSTYDAGTYVTHVGIYAGENRMFHAGNPVGWTNLTESYWQQHLIGAGRYNEGHHHHHH”, the “soluble on expression in E. coli” value is reported as “soluble”.
In the case of “MNVVKISPRGYCYGVVDAMVLARQAAQNLDLPRPIYILGMIVHNKHVTDAFEEEGIISLDGPNRLDILKQVDKGTVIFTAHGVSPQVRKLAKEKGLTVVDATCPDVTRTHDLIREKSQEGYKFIYVGKKGHPEPEGAIGVAPEFVHLVENVEDVESLDISADKIIITNQTTMSQWDVSEIMKKAMEKYPQAEVHNEICLATQVRQEAVAEQARECDLVIVVGDPKSNNSNRLAQVSEQIAGTKAYRIGDVTELQQEWFDGVETVGVTAGASTPTPITKEVIAFIEKYDPSKPETWTPERKVTLQKILPKVKIKKLEHHHHHH”, the “soluble on expression in E. coli” value is reported as “soluble”.
For “MAITAQMVKELREKTGAGMMDCKKALTETNGDMEKAIDFLREKGIAKAAKKADRIAAEGLTFIETNGNDGLILELNSETDFVAKNEGFQTLIKELAAHLLANKPANVEEAMAQTMENGKKVEEHINEAIAKIGEKLTLRRFEIVSKTDADAFGAYLHMGGRIGVLTVLEGSTDEAAAKDVAMHIAAVNPKYIDRDAVTAEEVEHERQVLTQQALNEGKPEKIVAKMVEGRLGKFFEEICLLDQAFVKNPDMKVRQFVESKGGTLKGFVRYAVGEGIEKREDNFAEEVMNQVKGSN”, the “soluble on expression in E. coli” value was “not soluble”.
For “MKTFIWNSNYETGVAKVDDQHQCLVEIINEYSHLLANNTTTETDIELTLNKLIDYTKFHFKDEEQLMYSVGLDTRHITHHEKLHRDILDEISTLLSDQVTDKLSIARYILDLIIHWLVYHILGTDMNMAKLEHHHHHH”, the “soluble on expression in E. coli” value was “not soluble”.
With “MPRKQRVVTTPSPPTSDEDEDMDFGSTSQQQQQQPTRNNDGLSGFKSITEIIAEADNNIPSEQIDKDIDSFSSYSDISDWRGIPKFFPSLSSLSRRASTYENWENRFKVVDYLVSCSGALKDSVSDYVADYFEKNESGEDHSVDVELVHAVSMFVILTQRLTVQLQLYVSKSIASANQQAKRGTGRGGRQVDLDDDIVKWKDIQRHRMINCLLELLELRVDTVAGTKKKAIQYVFAPDVMEKDFLLRFLDTVVQLLEDPENMARSSQQWISHYFRILKVLSADYGMTKDVANCLFTALSHSYLEAANTFPFIEPLVTLMKENGEGSGRIYQPLRNVLQLVICRVGNLYAGERAEKPPPKAFCMMVQSLAINVHDLMLQDITHVYRLLQNQHVNVRMSTLHALADMFSSSYLSQSLCDTFASRRLKREGIFKRLLAHTNDEATNVRSKAVSLLRNIMENRRIPEEFESCGLLSIVGSRLNDKSVQVRKSAIQFLTTFLDNNRHGHDFNREMHQLKLNAKCSELRNAEEPQSKAIQGAENAFRQNLFTLTAGVRVEVYDIFRRRYRVEPERSITDILTGLFSPGSGNRLVRYYVAQENFPFRDRIPSLRERRSDDMEDDDDDTVSLEDDDMTSLVSEVVKWVVAQAEEDYVTFKVQLTQMDDDQLLENEQEARDRNNQIMQLRAQVQQLINKMSIEQELSRCVTIALRCVLNGETAEIKEGIRFLTRCKLFEITGADDAIRSMCSLVWRPSADILNELIEAAEDMFISRLDGNEKASERDSSTVENLMKAMNGVTEKDRPSVEEVIYLLAATELVHVDSDKNKVPRKRRPIEANVINKLWMIALDMSHGINSRKIDALRILYPISRSERGIAEARSRLRVVQKKLMDPELAVDALRIISILGTPTKLENEQDAYSRPLFKIHQDDSLWKSIEKLFFYEIMKADDNPDRDWFGVIRLTITTILSLSMDVNVMLPKLASHFVYRTKRISDFFLFYCDQVDDATDDTRKKMAQRRREYWALTYCRVMEKLMAFIGEVAVQLNAYIQVTIPKLHTRYVSKMVDAEKNDANIREEPVRFLSDLEKSVAQRKTIFTVPQDTTPGATSNDLHHLVSVMCDKRLFVPNKLMGRLLPIVVYGMRCKIMPTRIRHAATVAYGKMMPLSAEISAFAAPSFFSAMTKSSSILLRCNLVAACCDFAFAQPTLFELFAQSLFRMSQDESPLARESTILVLSHLMSNDMIQTRGVLSEAARCICDPTRAVRDVAQSFFKELNSRTDTIIQLLPEFLYHLSNGNERMSFKSYKTVFEFLIQLLKDKPKASADSMIDRVCIKFSNTDMNDSETPKYLLVALAKFVQNDGGLHRLQDNWRHWSKFMCHPSVAKEYRMMVEHMHSTSKNDEFKSQCVELIDNINKIESEGLRKEDVAIGSSITKNKGRAKKNPTTMSGSSRTTSRAANSRRRAPPPAQSDEDDSDSDDAPAAPRSAARRKAKKSAVADDDSDSDEFMLDD” the “soluble on expression in E. coli” value was “not soluble”.
For “ARGVKGHVRVLANTTAMTEFMPAVLARYLAAHPDVNVELRERLSYLVVRAVADGSADIGVVAGCAPDQKLQFIPYRKDRLVVVTPAGHRLAAEESVAFADTLADDYVGLSEWSAIHPFLVQAAASLGRTFKFRVEVGNFEAVCRMIESG”, the “soluble on expression in E. coli” value was “not soluble”.
With “MSLHISVMGELDSKADVDRLLESIDENCDCEIHLTFLDANVVPREIVEKIVKLKEHNKCKIFVLKAYLYSYFLSLGISCFLVKKKSILNKDFESKEKLSSQTFEPEKVEKFLWDIYDKYGFDFTEYRKDSIIRRIKISMLRYCMTNFDEFSHLALTDQDVFEQLFLDFSINTTNFFRDPEVFMFLREKVLLFLDSYSHIRIWCVGCSNGKEPYSLAIILKELGMLHKVQIYATDINPYVIEEAKNGLYSVSTINTDIANYKKSGGSKNFTDYFEVNGNYMKVKDDFKDNILFFQHSVIEKGILNEFQMILCRNVMIYFDIPLQKKVLRHFYNSLDSGGFLVMGKSEGMLLNNGYEYFADYNEKYSVYRRKEGHHHHHH” the “soluble on expression in E. coli” value was “soluble”.
